According to IntAct's records for PubMed 15791205:

B1: Angiotensin-converting enzyme 2 (Rattus norvegicus (Rat)), Q5EGZ1 (parent)
chain: MSSSCWLLLSLVAVATAQSLIEEKAESFLNKFNQEAEDLSYQSSLASWNYNTNITEENAQKMNEAAAKWSAFYEEQSKIAQNFSLQEIQNATIKRQLKALQQSGSSALSPDKNKQLNTILNTMSTIYSTGKVCNSMNPQECFLLEPGLDEIMATSTDYNRRLWAWEGWRAEVGKQLRPLYEEYVVLKNEMARANNYEDYGDYWRGDYEAEGVEGYNYNRNQLIEDVENTFKEIKPLYEQLHAYVRTKLMEVYPSYISPTGCLPAHLLGDMWGRFWTNLYPLTTPFLQKPNIDVTDAMVNQSWDAERIFKEAEKFFVSVGLPQMTPGFWTNSMLTEPGDDRKVVCHPTAWDLGHGDFRIKMCTKVTMDNFLTAHHEMGHIQYDMAYAKQPFLLRNGANEGFHEAVGEIMSLSAATPKHLKSIGLLPSNFQEDNETEINFLLKQALTIVGTLPFTYMLEKWRWMVFQDKIPREQWTKKWWEMKREIVGVVEPLPHDETYCDPASLFHVSNDYSFIRYYTRTIYQFQFQEALCQAAKHDGPLHKCDISNSTEAGQKLLNMLSLGNSGPWTLALENVVGSRNMDVKPLLNYFQPLFVWLKEQNRNSTVGWSTDWSPYADQSIKVRISLKSALGKNAYEWTDNEMYLFRSSVAYAMREYFSREKNQTVPFGEADVWVSDLKPRVSFNFFVTSPKNVSDIIPRSEVEEAIRMSRGRINDIFGLNDNSLEFLGIYPTLKPPYEPPVTIWLIIFGVVMGTVVVGIVILIVTGIKGRKKKNETKREENPYDSMDIGKGESNAGFQNSDDAQTSF

Variants of: B1
Conditions: with spike_sars S

Variant | effect of a mutation on the interaction
N82M;F83Y;S84P;H353K | causing an interaction

Variants of: B1
Conditions: with spike_sars S
Remark: another data set of the same source

Variant | effect of a mutation on the interaction
N82M;F83Y;S84P;H353K | causing an interaction
N82M;F83Y;S84P | causing an interaction
H353K | causing an interaction
